{"source": "paper PMC6093495", "key": {"OmpF (Escherichia coli)": {"biological_target": "OmpF (Escherichia coli) (UniProt P02931)", "test": "ITC", "conditions": "cited from earlier work"}, "[1]": {"biological_target": "OmpF trimer (Escherichia coli (endogenous in B^E3000)) (UniProt P02931)", "test": "ITC"}}}
{"substance": "Colicin E9 OBS2 peptide", "values": [{"measurement": "Kd", "setting": "OmpF (Escherichia coli)", "result": 24, "unit": "µM"}]}
{"substance": "(OBS2)3, TMEA-mediated tridentate OBS2 in the form of a colicin DNase fusion (S71C ColE9^53–83-DNase) (from UniProt P09883 53-83)", "values": [{"measurement": "Kd", "setting": "[1]", "result": 0.48, "unit": "µM"}, {"measurement": "dH", "setting": "[1]", "result": -5.64, "unit": "kcal·mol^–1"}, {"measurement": "stoichiometry N", "setting": "[1]", "result": 3}]}
{"substance": "Colicin E9 OBS1 peptide OBS1 (from UniProt P09883)", "values": [{"measurement": "Kd", "setting": "OmpF (Escherichia coli)", "result": 2, "unit": "µM"}]}
